Test results taken from publication PMC3531475.

Assays:
[1] = biological target: T1, adiponectin receptor type 2 (AdipoR2) (human (endogenous in SH-SY5Y)) (UniProt Q86V24)
T1 sequence: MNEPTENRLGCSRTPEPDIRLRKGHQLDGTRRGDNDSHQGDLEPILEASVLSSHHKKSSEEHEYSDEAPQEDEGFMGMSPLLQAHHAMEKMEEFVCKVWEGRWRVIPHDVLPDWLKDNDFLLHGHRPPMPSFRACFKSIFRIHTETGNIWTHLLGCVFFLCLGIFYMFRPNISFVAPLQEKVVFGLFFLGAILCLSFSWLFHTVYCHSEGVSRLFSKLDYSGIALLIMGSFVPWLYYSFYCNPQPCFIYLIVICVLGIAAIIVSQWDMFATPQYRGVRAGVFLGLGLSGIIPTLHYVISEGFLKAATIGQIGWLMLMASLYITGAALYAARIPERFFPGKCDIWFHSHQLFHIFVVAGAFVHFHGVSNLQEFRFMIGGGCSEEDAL

[2] = biological target: T2, adiponectin receptor type 1 (AdipoR1) (human (endogenous in SH-SY5Y)) (UniProt Q96A54)
T2 sequence: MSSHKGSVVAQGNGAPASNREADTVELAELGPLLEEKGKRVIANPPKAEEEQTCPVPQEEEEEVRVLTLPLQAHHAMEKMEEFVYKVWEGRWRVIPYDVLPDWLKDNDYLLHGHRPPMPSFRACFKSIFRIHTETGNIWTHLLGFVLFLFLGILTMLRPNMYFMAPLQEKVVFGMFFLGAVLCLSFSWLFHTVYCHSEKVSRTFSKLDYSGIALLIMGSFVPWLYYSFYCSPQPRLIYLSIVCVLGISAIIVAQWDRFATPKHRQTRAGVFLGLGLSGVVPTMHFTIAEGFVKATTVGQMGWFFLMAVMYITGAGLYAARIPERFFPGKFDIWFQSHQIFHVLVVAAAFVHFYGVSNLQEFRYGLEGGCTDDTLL

Question: Which results are given for “Mouse recombinant adiponectin (from UniProt Q60994 18-247) (ligand)”?
Answer: cytotoxicity (LDH release, fold of untreated) of Sw-APP transfected SH-SY5Y cells under H2O2 (200-800 µM), with adiponectin 10 µg/ml for 2 hours beforehand; most marked at 400 µM H2O2 (fold cytotoxicity) [1]: 2.7; cytotoxicity (LDH release, fold of untreated) of Sw-APP transfected SH-SY5Y cells under H2O2 (200-800 µM), with adiponectin 10 µg/ml for 2 hours beforehand; most marked at 400 µM H2O2 (fold cytotoxicity) [2]: 2.7
